Experimental data as given in paper PMC12884772, “Macrophagic Sclerostin Loop2‐ApoER2 Interaction Required by Sclerostin for Cardiovascular Protective Action” (Advanced Science, 2025).

Key:
[1] = biological target: T1, ApoER2 (Mus musculus, UniProt Q924X6); assay: Pull‐down assay of ApoER2 by His‐tagged full‐length/truncated/mutated sclerostin in macrophages (RAW264.7); type: binding; conditions: RAW264.7 lysate, Ni‐NTA beads, western blot; Figure 6A, S6A
T1 construct: FLAG; expressed in transfected cells; host or cells: RAW264.7
T1 sequence (Q924X6 29-996): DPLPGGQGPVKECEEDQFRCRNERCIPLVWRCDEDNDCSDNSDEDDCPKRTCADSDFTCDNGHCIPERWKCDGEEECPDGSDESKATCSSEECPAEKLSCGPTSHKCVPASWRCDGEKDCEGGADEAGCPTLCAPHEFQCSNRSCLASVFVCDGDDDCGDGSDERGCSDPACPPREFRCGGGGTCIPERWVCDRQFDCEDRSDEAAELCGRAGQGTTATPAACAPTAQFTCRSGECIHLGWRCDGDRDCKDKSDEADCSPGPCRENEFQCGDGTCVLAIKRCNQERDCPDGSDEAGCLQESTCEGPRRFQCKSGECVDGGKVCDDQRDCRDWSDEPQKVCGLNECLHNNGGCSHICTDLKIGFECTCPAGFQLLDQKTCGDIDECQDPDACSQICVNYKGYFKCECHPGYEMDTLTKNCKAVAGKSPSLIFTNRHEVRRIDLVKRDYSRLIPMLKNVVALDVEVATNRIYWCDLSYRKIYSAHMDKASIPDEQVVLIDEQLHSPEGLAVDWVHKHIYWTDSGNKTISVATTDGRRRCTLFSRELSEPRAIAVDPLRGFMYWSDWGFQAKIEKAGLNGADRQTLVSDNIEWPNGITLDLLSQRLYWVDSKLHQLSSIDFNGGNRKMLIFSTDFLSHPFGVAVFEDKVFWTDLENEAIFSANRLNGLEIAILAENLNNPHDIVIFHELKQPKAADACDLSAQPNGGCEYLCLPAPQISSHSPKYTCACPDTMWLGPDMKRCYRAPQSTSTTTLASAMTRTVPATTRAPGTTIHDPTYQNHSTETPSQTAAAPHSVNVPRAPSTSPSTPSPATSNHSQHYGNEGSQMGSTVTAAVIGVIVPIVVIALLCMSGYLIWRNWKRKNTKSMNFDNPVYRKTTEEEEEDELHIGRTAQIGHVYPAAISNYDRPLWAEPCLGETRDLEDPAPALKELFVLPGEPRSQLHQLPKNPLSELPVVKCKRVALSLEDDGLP
Experimental: (§1) The interaction of full‐length (FL)/truncated ApoER2 with full‐length (FL) /truncated sclerostin in macrophages (RAW264.7) were determined by pull‐down assay and Co‐IP assay. The binding affinity of ApoER2 to FL sclerostin and sclerostin loop2 were determined by biolayer interferometry (BLI) analysis. Moreover, the binding of sclerostin to ApoER2 on macrophages (RAW264.7) was examined by confocal microscopy.
The interaction residues within ApoER2 to sclerostin loop2 were determined in combination with pull‐down assay and BLI analysis. Based on the interaction residues within ApoER2 to sclerostin loop2, a series of Lrp8 mutations were developed. Based on the interaction residues within sclerostin loop2 to ApoER2, a series of sost mutations were developed.
Cell lysates were collected using RIPA Lysis and Extraction Buffer (Thermo Scientific, 89 901) supplemented with Protease Inhibitor Cocktail (CST, 5871) and centrifuged at 4000 rpm for 30 min at 4 °C, and replaced with binding buffer (PBS buffer, 20 mM imidazole, pH 8.0). […]
The eluted liquid from pull‐down assay was then mixed with SDS‐PAGE loading buffer and boiled for 10 min at 95 °C to make samples. […] The ECL solution (BIO‐RAD, 1 705 061) was used to visualize detected proteins. […]

[2] = biological target: T1, ApoER2; assay: Confocal microscopy of cell surface binding of sclerostin to ApoER2; type: cell-based; conditions: GFP‐ApoER2 overexpressed RAW 264.7, sclerostin 1 µM for 12 h; Figure 6C
Experimental: as §1
GFP‐ApoER2 overexpressed RAW 264.7 cells and GFP‐vector overexpressed RAW 264.7 cells were plated in laser confocal dishes (80 000 cells per well) 12 h before the experiment. The recombinant sclerostin was added to make its final concentration 1 µM for 12 h. Cells were washed three times with PBS and then fixed with 4% paraformaldehyde (PFA) in PBS for 15 min, washed three times, blocked in 10% goat serum for 1 h at room temperature and incubated with anti‐sclerostin primary antibody (Thermo, PA5‐113315, 1:100) overnight at 4 °C. Thereafter, cells were washed with PBS three times, then incubated with goat anti‐rabbit IgG H&L (Alexa Fluor 594, 1:200) for 2 h at 37 °C. Hoechst was used to stain the cell nuclei. The fluorescent images were obtained by a confocal microscope (Leica, STELLARIS STED) equipped with a 405 nm laser, a 488 nm laser, and a 594 nm laser.^[ [67] ^]

sclerostin: recombinant human/mouse full‐length sclerostin protein
Pull‐down of FLAG‐ApoER2 by the His‐tagged protein/peptide [1]: pulled
Cell surface binding of sclerostin to ApoER2 [2]: observed
